Test results: publication PMC4364671, “Identification and Characterization of Bifunctional Proline Racemase/Hydroxyproline Epimerase from Archaea: Discrimination of Substrates and Molecular Evolution” (PLoS ONE, 2015)

What was measured:
HjProR = biological target: T1, HjProR (Haloarcula japonica, UniProt M0LMI3); assay: chiral HPLC of NBD-F derivatives, racemase activity; type: biochemical
T1 construct: gene C444_02196; full length, N-terminal His6 tag kept (pETDuet-1), E. coli; dimer; possible partial proteolysis
T1 sequence (M0LMI3 entry or part of it): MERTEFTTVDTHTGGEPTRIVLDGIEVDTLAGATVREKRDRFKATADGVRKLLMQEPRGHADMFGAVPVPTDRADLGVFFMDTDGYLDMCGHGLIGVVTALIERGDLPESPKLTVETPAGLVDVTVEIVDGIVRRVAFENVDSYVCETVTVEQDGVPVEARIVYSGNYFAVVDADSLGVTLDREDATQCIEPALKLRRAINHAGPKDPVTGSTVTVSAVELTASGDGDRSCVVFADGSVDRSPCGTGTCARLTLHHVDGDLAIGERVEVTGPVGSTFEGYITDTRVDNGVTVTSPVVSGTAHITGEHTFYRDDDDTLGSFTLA

[1] = biological target: Hydroxyproline 2-epimerase from Azospirillum brasilense (Azospirillum brasilense ATCC 29145); assay: SEC; analytic gel filtration by HPLC on TSKgel G3000SWXL, 50 mM Tris-HCl pH 8.0, 1 ml/min, high molecular weight calibration kit; data not shown
[2] = biological target: ProR-like protein from Ferroplasma acidiphilum (Ferroplasma acidiphilum DSM 12658); assay: as above
[3] = biological target: ProR-like protein (OCC_00372) from Thermococcus litoralis, bifunctional proline racemase/hydroxyproline epimerase (Thermococcus litoralis DSM 5473); assay: as above
[4] = biological target: ProR-like protein from Haloarcula japonica (Haloarcula japonica DSM 6131); assay: as above
[5] = biological target: T2, TlProR (bifunctional proline racemase/hydroxyproline epimerase) (Thermococcus litoralis, UniProt H3ZMH5); assay: HPLC racemase assay with L-proline, chiral separation; type: biochemical
T2 construct: gene OCC_00372
T2 sequence (H3ZMH5 1-331): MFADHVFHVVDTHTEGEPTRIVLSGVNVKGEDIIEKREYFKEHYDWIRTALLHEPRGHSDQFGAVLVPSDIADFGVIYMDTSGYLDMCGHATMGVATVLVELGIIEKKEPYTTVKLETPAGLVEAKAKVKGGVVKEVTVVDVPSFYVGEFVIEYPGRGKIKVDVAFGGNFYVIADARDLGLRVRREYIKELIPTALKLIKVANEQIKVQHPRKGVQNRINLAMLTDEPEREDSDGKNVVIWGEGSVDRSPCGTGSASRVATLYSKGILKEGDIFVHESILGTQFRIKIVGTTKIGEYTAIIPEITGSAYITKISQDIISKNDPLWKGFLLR

purified protein [6] = substrate: O=C(O)[C@@H]1CCCN1; assay: purified protein
purified protein [7] = substrate: O=C(O)[C@@H]1C[C@@H](O)CN1; assay: purified protein
purified protein [8] = substrate: O=C(O)[C@H]1CCCN1; assay: purified protein
purified protein [9] = substrate: O=C(O)[C@H]1C[C@@H](O)CN1; assay: purified protein
purified protein [10] = substrate: O=C(O)[C@H]1NCC[C@@H]1O; assay: purified protein
[11] = biological target: the molecule itself; assay: SEC; analytic gel filtration by HPLC on TSKgel G3000SWXL, 50 mM Tris-HCl pH 8.0, 1 ml/min, high molecular weight calibration kit; data not shown

For `O=C(O)c1ccc[nH]1` [pyrrole-2-carboxylate], the IC50 (HjProR) was 295 µM.

“Hydroxyproline 2-epimerase from Azospirillum brasilense (enzyme)” was tested, and the stoichiometry N [1] was 2.

“ProR-like protein from Ferroplasma acidiphilum (enzyme)” was tested, and the stoichiometry N [2] was 2.

In the case of “ProR-like protein (OCC_00372) from Thermococcus litoralis, bifunctional proline racemase/hydroxyproline epimerase (enzyme)”, the stoichiometry N [3] is reported as 2.

In the case of “ProR-like protein from Haloarcula japonica (enzyme)”, the stoichiometry N [4] is reported as 2.

`O=C(O)c1ccc[nH]1` [PYC, pyrrole-2-carboxylate] showed an IC50 [5] of 217 µM.

B1: TlProR (bifunctional proline racemase/hydroxyproline epimerase) (Thermococcus litoralis DSM 5473) (protein)
chain: T2 sequence (H3ZMH5 1-331)
Work on B1 yielded a Km (purified protein [6]) of 1210 µM, a kcat (purified protein [6]) of 2.78 s⁻¹ and a kcat/Km (purified protein [6]) of 2300 M⁻¹ s⁻¹. It also gave a Km (purified protein [7]) of 6080 µM, a kcat (purified protein [7]) of 12.1 s⁻¹ and a kcat/Km (purified protein [7]) of 2030 M⁻¹ s⁻¹. For the same molecule, the Km (purified protein [8]) was 91.9 µM, the kcat (purified protein [8]) was 2.22 s⁻¹ and the kcat/Km (purified protein [8]) was 26200 M⁻¹ s⁻¹. It also gave a Km (purified protein [9]) of 6650 µM, a kcat (purified protein [9]) of 3.83 s⁻¹ and a kcat/Km (purified protein [9]) of 580 M⁻¹ s⁻¹. It also gave a Km (purified protein [10]) of 502 µM, a kcat (purified protein [10]) of 3.6 s⁻¹ and a kcat/Km (purified protein [10]) of 7170 M⁻¹ s⁻¹.

B2: Proline racemase from Clostridium difficile (enzyme, Clostridium difficile 630, UniProt Q17ZY4 1-335, looked up)
chain: MKFSRSIQAIDSHTAGEATRIVVGGIPNIKGNSMPEKKEYLEENLDYLRTAIMLEPRGHNDMFGSVMTQPCCPDADFGIIFMDGGGYLNMCGHGTIGAMTAAIETGVVPAVEPVTHVVMEAPAGIIRGDVTVVDGKAKEVSFLNVPAFLYKEGVEVDLPGVGTVKFDISFGGSFFAIIHASQLGLKIEPQNAGKLTELAMKLRDIINEKIEIQHPTLAHIKTVDLVEIYDEPTHPEATYKNVVIFGQGQVDRSPCGTGTSAKLATLHAKGELKVGEKFVYESILGTLFKGEIVEETKVADFNAVVPKITGSAYITGFNHFVIDEEDPLKHGFILK
notes: Proline racemase CdProR of Clostridium difficile 630, gene CD630_32370 amplified from genomic DNA into pETDuet-1; calculated mass with His6-tag 37.7 kDa; also called CdProR; source: E. coli BL21-CodonPlus(DE3)-RIL, purified (Ni-NTA); not shown: His6, N-terminal, kept
With B2 the “stoichiometry N” value [11] was 2.
